Laboratory results: publication PMC10213502, “ICA69 regulates activity-dependent synaptic strengthening and learning and memory” (Frontiers in Molecular Neuroscience, 2023)

Biological target: T1, GFP-tagged PICK1 (UniProt Q9EP80 1-416)
T1 construct: construct as previously described (Cao et al., 2007); also called GFP-PICK1; source: HEK293T, transfected, in lysate
Test: co-IP; HEK cells co-transfected with the GFP-tagged bait and both myc-tagged proteins; IP with GFP antibody (normal rabbit serum as control), myc blot; IP signals normalised to input; lysis buffer 1% NP-40, 200 mM NaCl, 20 mM HEPES pH 7.4; 4°C
Details: partners not purified

T1 sequence (Q9EP80 whole entry): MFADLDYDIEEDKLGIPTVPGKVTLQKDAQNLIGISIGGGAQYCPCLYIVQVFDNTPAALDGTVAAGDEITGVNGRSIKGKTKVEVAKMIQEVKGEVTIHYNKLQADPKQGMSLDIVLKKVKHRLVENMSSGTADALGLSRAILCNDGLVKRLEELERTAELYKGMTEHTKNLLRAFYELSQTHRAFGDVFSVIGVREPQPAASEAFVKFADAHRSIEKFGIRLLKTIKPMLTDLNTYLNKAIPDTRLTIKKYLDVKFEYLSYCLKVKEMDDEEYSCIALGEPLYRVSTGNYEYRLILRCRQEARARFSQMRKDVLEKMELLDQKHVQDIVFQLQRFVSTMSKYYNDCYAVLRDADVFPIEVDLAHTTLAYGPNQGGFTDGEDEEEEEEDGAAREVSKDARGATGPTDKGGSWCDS

- heteromer/homomer ratio (myc-ICA69 over myc-PICK1 in the IP of GFP-PICK1): 19 ratio
B1: myc-tagged ICA69 (full-length) (natural protein, UniProt Q63054 1-480, looked up)
chain: MSGHKCYSWELQDRFAQDKSVVNKMQQKYWETKQAFIKATGKKEDEHVVASDADLDAKLELFHSIQRTCLDLSKAIVLYQKRICFLSQEENELGKFLRSQGFQDKTRAGKMMQATGKALCFSSQQRLALRNPLCRFHQEVETFRHRAISDTWLTVNRMEQCRTEYRGALLWMKDVSQELDPDLYKQMEKFRKVQTQVRLAKKNFDKLKMDVCQKVDLLGASRCNLLSHMLATYQTTLLHFWEKTSHTMAAIHESFKGYQPYEFTTLKSLQDPMKKLVEKEKKKSSRRENREAVAQEPRQLISLEEENQHKESSTCQKEEGKSVPSSVDKSSADDACSGPIDELLDVKPEEACLGPMAGTPEPESGDKDDLLLLNEIFSTSSLDEGEFSREWAAVFGDDRLKEPAPMGAQGEPDPKPQIGSAFLPSQLLDQNMKDLQASLQEPAKAASDLTAWFSLFADLDPLSNPDAIGKTDKEHELLNA
notes: ICA69 (islet cell autoantigen of 69 kDa), myc-tagged full-length made by overlap extension PCR; The same protein as m1, with another tag; also called myc-ICA69; source: HEK293T, transfected, in lysate
